{
  "source": "paper PMC4125498",
  "about": "(Nature structural & molecular biology, 2014)",
  "binders": {"B1": {"name": "Alexa 488-conjugated MBP-Cep192-58mer (domain or fragment, human, UniProt Q8TEP8 201-258, looked up)", "chain": "EKLILPTSLEDSSDDDIDDEMFYDDHLEAYFEQLAIPGMIYEDLEGPEPPEKGFKLPT", "modifications": "also: Alexa Fluor 488 conjugated, sites not given here, MBP fusion"}, "B2": {"name": "Alexa 488-conjugated MBP-Cep152-60mer (domain or fragment, human, UniProt O94986 1-60, looked up)", "chain": "MSLDFGSVALPVQNEDEEYDEEDYEREKELQQLLTDLPHDMLDDDLSSPELQYSDCSEDG", "modifications": "also: Alexa Fluor 488 conjugated, sites not given here, MBP fusion"}, "B3": {"name": "His6-MBP-TEV-Cep152 60mer (1–60) (domain or fragment, human, UniProt O94986 1-60, looked up)", "chain": "B2 chain"}, "B4": {"name": "human Plk4 cryptic polo box (CPB, residues 580–808), His6-MBP tag removed (domain or fragment, UniProt O00444 580-808, looked up)", "chain": "WGYQNRTLRSITSPLVAHRLKPIRQKTKKAVVSILDSEEVCVELVKEYASQEYVKEVLQISSDGNTITIYYPNGGRGFPLADRPPSPTDNISRYSFDNLPEKYWRKYQYASRFVQLVRSKSPKITYFTRYAKCILMENSPGADFEVWFYDGVKIHKTEDFIQVIEKTGKSYTLKSESEVNSLKEEIKMYMDHANEGHRICLALESIISEEERKTRSAPFFPIIIGRKPG"}, "B5": {"name": "His6-MBP-TEV-Cep152 (1–217) (domain or fragment, human, UniProt O94986 1-217, looked up)", "chain": "MSLDFGSVALPVQNEDEEYDEEDYEREKELQQLLTDLPHDMLDDDLSSPELQYSDCSEDGTDGQPHHPEQLEMSWNEQMLPKSQSVNGYNEIQSLYAGEKCGNVWEENRSKTEDRHPVYHPEEGGDEGGSGYSPPSKCEQTDLYHLPENFRPYTNGQKQEFNNQATNVIKFSDPQWNHFQGPSCQGLEPYNKVTYKPYQSSAQNNGSPAQEITGSDT"}},
  "key": {"[1]": {"biological_target": "B4", "assay": "fluorescence polarisation"}, "[2]": {"biological_target": "B4", "assay": "fluorescence polarisation", "remark": "listed apart in the source"}, "[3]": {"biological_target": "T1, His6-MBP-TEV-Cep192 58mer (201–258) (human, UniProt Q8TEP8 201-258)", "T1 sequence (looked up)": "B1 chain", "assay": "pull-down"}, "[4]": {"biological_target": "T2, GST-Plk4 C (580–970) (human, UniProt O00444 580-970)", "T2 sequence (looked up)": "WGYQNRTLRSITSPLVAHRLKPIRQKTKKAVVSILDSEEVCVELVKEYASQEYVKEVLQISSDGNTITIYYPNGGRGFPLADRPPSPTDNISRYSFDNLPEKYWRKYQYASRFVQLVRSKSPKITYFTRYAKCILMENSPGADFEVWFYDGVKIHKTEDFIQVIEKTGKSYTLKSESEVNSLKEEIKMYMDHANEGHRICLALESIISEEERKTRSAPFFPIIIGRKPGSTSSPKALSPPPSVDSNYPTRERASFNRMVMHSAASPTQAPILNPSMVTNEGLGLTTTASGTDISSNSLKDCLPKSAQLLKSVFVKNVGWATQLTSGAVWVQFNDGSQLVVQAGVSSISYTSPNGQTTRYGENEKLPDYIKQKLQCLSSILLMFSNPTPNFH", "assay": "pull-down"}},
  "note": "No end group written: not given here.",
  "data": [
    {"binder": "B1", "values": [
      {"measurement": "Kd", "setting": "[1]", "value": 0.177, "unit": "µM"}
    ]},
    {"binder": "B2", "values": [
      {"measurement": "Kd", "setting": "[1]", "value": 0.032, "unit": "µM"}
    ]},
    {"binder": "B3", "values": [
      {"measurement": "IC50", "setting": "[2]", "value": 0.064, "unit": "µM"}
    ]},
    {"binder": "B4", "values": [
      {"measurement": "stoichiometry N", "setting": "[3]", "value": "~2 MBP-Cep192-58mer per CPB dimer"}
    ]},
    {"binder": "B5", "values": [
      {"measurement": "binding result", "setting": "[4]", "value": "binds"}
    ]}
  ]
}
